Experimental data as given in doi:10.1101/2021.04.16.440108 (bioRxiv, 2021).

B1: IκBα (natural protein, UniProt P25963 1-317, looked up)
chain: MFQAAERPQEWAMEGPRDGLKKERLLDDRHDSGLDSMKDEEYEQMVKELQEIRLEPQEVPRGSEPWKQQLTEDGDSFLHLAIIHEEKALTMEVIRQVKGDLAFLNFQNNLQQTPLHLAVITNQPEIAEALLGAGCDPELRDFRGNTPLHLACEQGCLASVGVLTQSCTTPHLHSILKATNYNGHTCLHLASIHGYLGIVELLVSLGADVNAQEPCNGRTALHLAVDLQNPDLVSLLLKCGADVNRVTYQGYSPYQLTWGRPSTRIQQQLGQLTLENLQMLPESEDEESYDTESEFTEFTEDELPYDDCVFGGQRLTL
B2: Transgelin 3 (TAGLN3) (natural protein, human, UniProt Q9UI15 1-199, looked up)
chain: MANRGPSYGLSREVQEKIEQKYDADLENKLVDWIILQCAEDIEHPPPGRAHFQKWLMDGTVLCKLINSLYPPGQEPIPKISESKMAFKQMEQISQFLKAAETYGVRTTDIFQTVDLWEGKDMAAVQRTLMALGSVAVTKDDGCYRGEPSWFHRKAQQNRRGFSEEQLRQGQNVIGLQMGSNKGASQAGMTGYGMPRQIM

Tests used:
Transgelin 3 (TAGLN3) = target: B2; assay: nanoDSF
IκBα = target: B1; assay: nanoDSF

| Kd (IκBα) [µM] | Binder | Tm of TAGLN3 with 6-fold excess of IκBα (free TAGLN3: 56.8°C) (Transgelin 3 (TAGLN3)) [°C] |
| --- | --- | --- |
| – | B1 | 61 |
| 10 | B2 | – |
